Laboratory results: article PMC3536657 (PLoS Pathogens, 2013)

Experiments:
QH0692 gp140 trimer = biological target: T1, QH0692 gp140 trimer (HIV-1 clade B, isolate QH0692, UniProt Q5G5V7, strain); assay: ELISA; conditions: both partners purified
T1 construct: also called trimeric QH0692 gp140

SF162 gp140 trimer = biological target: T2, SF162 gp140 trimer (HIV-1 clade B, isolate SF162, UniProt P19550, strain); assay: ELISA; conditions: both partners purified
T2 construct: also called trimeric SF162 gp140

SF162 gp120 [1] = biological target: T3, SF162 gp120 (HIV-1 clade B, isolate SF162, UniProt P19550); assay: cell-based or functional assay
426c gp140 [2] = biological target: 426c gp140 (HIV-1 clade C, 426c, UniProt M4Q8P8, strain); assay: BLI; antibody-capture: IgG (15 µg/mL in PBS) on anti-human IgG Fc capture biosensors; Env in solution at one concentration (1.2 µM in the legend, 1.02 µM in the methods) in 1x kinetics buffer (PBS, 0.01% BSA, 0.02% Tween 20, 0.005% NaN3); conditions: both partners purified
SF162 gp120 [3] = biological target: T3, SF162 gp120; assay: ELISA; conditions: both partners purified
HXB2 gp120 = biological target: T4, HXB2 gp120 (HIV-1 clade B, isolate HXB2, UniProt P04578); assay: ELISA; conditions: both partners purified
T4 construct: also called HXBc2; HXB2 Env; source: bought: Immune Technologies

426c gp140 [4] = biological target: 426c gp140 (HIV-1 clade C, 426c, UniProt M4Q8P8, strain); assay: BLI; antibody-capture: IgG (15 µg/mL in PBS) on anti-human IgG Fc capture biosensors; Env in solution at one concentration (1.2 µM in the legend, 1.02 µM in the methods) in 1x kinetics buffer (PBS, 0.01% BSA, 0.02% Tween 20, 0.005% NaN3); conditions: both partners purified; remark: listed apart in the source
Q168a2 gp140 = Q168a2 gp140 (HIV-1 clade A, Q168a2, UniProt Q8JDN0, strain); assay: as above; conditions: both partners purified
Q461e2 gp140 = Q461e2 gp140 (HIV-1 clade A, Q461e2, UniProt Q8JDJ9, strain); assay: as above; conditions: both partners purified
QH0692 gp120 = biological target: T5, QH0692 gp120 (HIV-1 clade B, isolate QH0692, UniProt Q5G5V7, strain); assay: BLI; conditions: both partners purified
T5 construct: also called QH0692 Env; recombinant QH0692 Env; source: bought: Immune Technologies

B1: mature IgG b12 (antibody, V domains shown)
VH: QVQLVQSGAEVKKPGASVKVSCQASGYRFSNFVIHWVRQAPGQRFEWMGWINPYNGNKEFSAKFQDRVTFTADTSANTAYMELRSLRSADTAVYYCARVGPYSWDDSPQDNYYMDVWGKGTTVIVSS
VL: EIVLTQSPGTLSLSPGERATFSCRSSHSIRSRRVAWYQHKPGQAPRLVIHGVSNRASGISDRFSGSGSGTDFTLTITRVEPEDFALYYCQVYGASSYTFGQGTKLERK
notes: also called mature b12; mature b12 IgG
- binding result (QH0692 gp140 trimer): binds
- binding result (SF162 gp140 trimer): binds
- neutralisation of SF162 virions (luciferase reporter cells), IC50 (SF162 gp120 [1]): 0.01 µg/mL
- binding result (426c gp140 [2]): binds

B2: b12 IgG, germline heavy chain with S31N/A52P/G53Y/G100W, paired with the mature light chain (antibody, V domains shown)
VH: QVQLVQSGAEVKKPGASVKVSCKASGYTFTNYAMHWVRQAPGQRLEWMGWINPYNGNTKYSQKFQGRVTITRDTSASTAYMELSSLRSEDTAVYYCARVGPYCWGDSPQDNYYMDVWGKGTTVTVSS
VL: EIVLTQSPGTLSLSPGERATFSCRSSHSIRSRRVAWYQHKPGQAPRLVIHGVSNRASGISDRFSGSGSGTDFTLTITRVEPEDFALYYCQVYGASSYTFGQGTKLERK
- binding result (SF162 gp120 [3]): no binding (tested: 30 µg/mL)
- binding result (HXB2 gp120): binds

B3: b12 IgG, germline heavy chain with G100W, paired with the mature light chain (antibody, V domains shown)
VH: QVQLVQSGAEVKKPGASVKVSCKASGYTFTSYAMHWVRQAPGQRLEWMGWINAGNGNTKYSQKFQGRVTITRDTSASTAYMELSSLRSEDTAVYYCARVGPYCWGDSPQDNYYMDVWGKGTTVTVSS
VL: EIVLTQSPGTLSLSPGERATFSCRSSHSIRSRRVAWYQHKPGQAPRLVIHGVSNRASGISDRFSGSGSGTDFTLTITRVEPEDFALYYCQVYGASSYTFGQGTKLERK
- binding result (SF162 gp120 [3]): no binding (tested: 30 µg/mL)
- binding result (HXB2 gp120): no binding (tested: 30 µg/mL)

B4: germline IgG b12 (antibody, V domains shown)
VH: QVQLVQSGAEVKKPGASVKVSCKASGYTFTSYAMHWVRQAPGQRLEWMGWINAGNGNTKYSQKFQGRVTITRDTSASTAYMELSSLRSEDTAVYYCARVGPYCGGDSPQDNYYMDVWGKGTTVTVSS
VL: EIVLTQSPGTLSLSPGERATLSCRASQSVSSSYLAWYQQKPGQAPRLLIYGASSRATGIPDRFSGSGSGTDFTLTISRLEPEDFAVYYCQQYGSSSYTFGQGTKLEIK
notes: also called germline b12; soluble germline version of IgG b12
- binding result (SF162 gp140 trimer): no binding (tested: 30 µg/mL)
- binding result (426c gp140 [4]): no binding (tested: 1.2 µM)
- binding result (Q168a2 gp140): no binding (tested: 1.2 µM)
- binding result (Q461e2 gp140): no binding (tested: 1.2 µM)

B5: NIH45-46 chimeric IgG, germline heavy chain with mature light chain (antibody, V domains shown)
VH: not shown
VL: EIVLTQSPATLSLSPGETAIISCRTSQSGSLAWYQQRPGQAPRLVIYSGSTRAAGIPDRFSGSRWGADYNLSISNLESGDFGVYYCQQYEFFGQGTKVQVD
- binding result (QH0692 gp120): no binding (tested: 100 nM; less than 0.2 nM shift)

B6: 3BNC60 chimeric IgG, germline heavy chain with mature light chain (antibody, V domains shown)
VH: not shown
VL: DIQMTQSPSSLSARVGDTVTITCQANGYLNWYQQRRGKAPKLLIYDGSKLERGVPARFSGRRWGQEYNLTINNLQPEDVATYFCQVYEFIVPGTRLDLK
notes: also called gHC/mLC (3BNC60)
- binding result (QH0692 gp120): no binding (tested: 100 nM; less than 0.2 nM shift)
